# According to patent US20190248888A1, “METHODS OF LOWERING BLOOD GLUCOSE LEVELS” (Regeneron Pharmaceuticals, Inc., priority 2016, published 2019):
# System: isolated pancreatic islets from mice
# Test: RNAseq gene expression in isolated pancreatic islets of GCGR antibody treated mice (Table 5)
# Format: in vivo, mouse
# Conditions: 10 mg/kg, 21 days
# Experimental: Mouse islets were isolated by density gradient separation after perfusing pancreas with Liberase TL (Roche, Indianapolis) through the common bile duct. Following a 13 min digestion at 37° C., the pancreas solution was washed and filtered through a 400-μm wire mesh strainer and islets were separated by Histopaque gradient centrifugation (Sigma-Aldrich). Isolated islets were cultured overnight in RPMI-1640 medium supplemented with 10% (v/v) FBS, 10 mM HEPES, 50 μM β-mercaptoethanol, 1.0 mM sodium-pyruvate, 100 U/mL penicillin and 100 μg/mL streptomycin at 37° C. with a 5% CO2 in air atmosphere.
# Total RNA was purified from all samples using MagMAX™-96 for Microarrays Total RNA Isolation Kit (Ambion by Life Technologies) according to manufacturer's specifications. Genomic DNA was removed using MagMAX™Turbo™DNase Buffer and TURBO DNase from the MagMAX kit listed above (Ambion by Life Technologies). mRNA was purified from total RNA using Dynabeads® mRNA Purification Kit (Invitrogen). Strand-specific RNA-seq libraries were prepared using ScriptSeq™ mRNA-Seq Library Preparation Kit (Epicentre). Twelve-cycle PCR was performed to amplify libraries. Sequencing was performed on Illumina HiSeq®2000 (Illumina) by multiplexed single-read run with 33 cycles.
# Raw sequence data (BCL files) were converted to FASTQ format via Illumina Casava 1.8.2. Reads were decoded based on their barcodes and read quality was evaluated with FastQC (http://www.bioinformatics.babraham.ac.uk/projects/fastqc/). Reads were mapped to the mouse transcriptome (NCBI GRCh37) using CLC Genomics Workbench Version 7.0 (CLCbio) or TopHat2 (Version 2.0.10) allowing two mismatches. Reads mapped to the exons of a gene were summed at the gene level. To identify differentially expressed genes, the statistical significance (p-value) of the differential expressions was assessed with DESeq package (version 1.6 or 2.0). […]
# [1] = α-GCGR vs Control, isolated islets
molecule,measurement,setting,value
"α-GCGR: potent monoclonal GCGR blocking antibody, HCVR/LCVR SEQ ID NOs: 86/88 (antibody, V domains shown) VH: EVQLVESGGGLVQPGGSLRLSCAASGFTFSNYLMNWVRQAPGKGLEWLANIQEDGIEKYYVDSVKGRFTISRDNAKNSLYLQMNSLRAEDTAVYYCAREPSHYDILTGYDYYYGMDVWGQGTTVTVS VL: DIQMTQSPSSLSASVGDRVTITCRASQGIRNDLGWYQQKPGKAPKRLIYAASSLQSGVPSRFSGSGSGTEFILTVSSLQPEDFATYYCLQYNSNPFTFGPGTKVDIK",Slc38a5 gene expression in isolated pancreatic islets,"mice, vs control antibody",most upregulated gene
same,1700086L19Rik Fold change,[1],1.89
same,1810011O10Rik Fold change,[1],−1.64
same,1810041L15Rik Fold change,[1],1.67
same,4930539E08Rik Fold change,[1],1.96
same,9030617O03Rik Fold change,[1],1.72
same,AW551984 Fold change,[1],1.69
same,Acta1 Fold change,[1],−1.79
same,Agpat4 Fold change,[1],1.73
same,Agt Fold change,[1],1.78
same,Ang Fold change,[1],1.62
same,Ano1 Fold change,[1],−1.78
same,Anxa3 Fold change,[1],−1.53
same,Anxa13 Fold change,[1],−1.60
same,Apoa2 Fold change,[1],1.68
same,Apod Fold change,[1],1.53
same,Apol7a Fold change,[1],−1.51
same,Arg1 Fold change,[1],1.53
same,Arx Fold change,[1],1.59
same,Asb11 Fold change,[1],−1.51
same,Avpr1b Fold change,[1],2.54
same,Basp1 Fold change,[1],1.65
same,Blnk Fold change,[1],1.55
same,Bok Fold change,[1],−1.85
same,Car9 Fold change,[1],−1.55
same,Cdc42ep1 Fold change,[1],−1.54
same,Clec2d Fold change,[1],1.82
same,Clic6 Fold change,[1],−1.69
same,Clu Fold change,[1],−1.80
same,Cnih2 Fold change,[1],1.55
same,Cobl Fold change,[1],1.58
same,Ctse Fold change,[1],−1.50
same,Dbpht2 Fold change,[1],1.87
same,Dmbt1 Fold change,[1],−1.61
same,Dpp6 Fold change,[1],1.79
same,Drc1 Fold change,[1],1.96
same,Eda2r Fold change,[1],1.59
same,Eef1a2 Fold change,[1],2.18
same,Ehf Fold change,[1],1.61
same,Etv1 Fold change,[1],1.62
same,F5 Fold change,[1],1.51
same,Ffar4 Fold change,[1],1.78
same,Fgd3 Fold change,[1],−1.67
same,Fgl2 Fold change,[1],1.65
same,Gamt Fold change,[1],−1.50
same,Gbp8 Fold change,[1],1.84
same,Gbp9 Fold change,[1],1.74
same,Gc Fold change,[1],1.83
same,Gcg Fold change,[1],3.55
same,Gcnt4 Fold change,[1],1.58
same,Gfra1 Fold change,[1],1.53
same,Gfra3 Fold change,[1],2.71
same,Gm609 Fold change,[1],2.04
same,Gm20554 Fold change,[1],1.67
same,Gng2 Fold change,[1],1.63
same,Gpr119 Fold change,[1],1.54
same,Gpx3 Fold change,[1],2.86
same,Hspb1 Fold change,[1],−1.54
same,Ifih1 Fold change,[1],2.33
same,Igsf23 Fold change,[1],−1.65
same,Irx1 Fold change,[1],1.83
same,Irx2 Fold change,[1],2.00
same,Itgb4 Fold change,[1],−1.69
same,Jchain Fold change,[1],1.57
same,Kcna2 Fold change,[1],−1.68
same,Kcnab3 Fold change,[1],−1.73
same,Kcnf1 Fold change,[1],−1.56
same,Kcnk3 Fold change,[1],2.23
same,Klb Fold change,[1],1.77
same,Klhl13 Fold change,[1],1.91
same,Krt19 Fold change,[1],−1.61
same,Krt20 Fold change,[1],−1.63
same,Krt23 Fold change,[1],−1.96
same,Lamb3 Fold change,[1],−1.71
same,Mafb Fold change,[1],1.86
same,Mamld1 Fold change,[1],1.75
same,Mapk13 Fold change,[1],−1.50
same,Matn2 Fold change,[1],−1.55
same,Ndst4 Fold change,[1],2.71
same,Necab2 Fold change,[1],−1.50
same,Nefm Fold change,[1],1.53
same,Npr1 Fold change,[1],−1.65
same,Nptxr Fold change,[1],−1.57
same,Nsg2 Fold change,[1],1.56
same,Ntn1 Fold change,[1],−1.61
same,Nudt11 Fold change,[1],2.00
same,Nyap1 Fold change,[1],1.77
same,Ocrl Fold change,[1],1.57
same,Oit1 Fold change,[1],1.71
same,Olfm3 Fold change,[1],1.96
same,Oxtr Fold change,[1],1.53
same,Pdk4 Fold change,[1],2.83
same,Peg10 Fold change,[1],2.06
same,Pla2g2d Fold change,[1],1.50
same,Ptf1a Fold change,[1],−1.95
same,Ptprd Fold change,[1],1.62
same,Ptprg Fold change,[1],1.52
same,Rasd1 Fold change,[1],−1.54
same,Rbms3 Fold change,[1],1.51
same,Rbp4 Fold change,[1],1.64
same,Rcn1 Fold change,[1],1.54
same,Rragb Fold change,[1],1.67
same,Sema3e Fold change,[1],1.81
same,Serpinb6b Fold change,[1],−1.68
same,Serpine2 Fold change,[1],2.80
same,Serping1 Fold change,[1],1.71
same,Sftpd Fold change,[1],2.07
same,Sgce Fold change,[1],1.84
same,Sh2d4a Fold change,[1],−1.52
same,Sh3bgr Fold change,[1],1.54
same,Slc38a3 Fold change,[1],−1.54
same,Slc38a5 Fold change,[1],5.54
same,Smarca1 Fold change,[1],1.88
same,Spns2 Fold change,[1],−1.76
same,St8sia1 Fold change,[1],−1.67
same,Syt16 Fold change,[1],1.63
same,Tead2 Fold change,[1],−1.60
same,Tesc Fold change,[1],1.54
same,Tmsb15b1 Fold change,[1],1.60
same,Tspan1 Fold change,[1],−2.50
same,Ttr Fold change,[1],4.27
same,Vnn1 Fold change,[1],−1.50
same,Vwde Fold change,[1],2.23
same,Wfdc16 Fold change,[1],1.51
same,Wnk3 Fold change,[1],2.33
